Measurements from US20260201008A1, “SECRETIN-DERIVED GLP1R SELECTIVE AGONISTS” (GUBRA A/S, priority 2023, published 2026).
Numbered stars: 1 amine (or outer) side, 2 acyl side, 3 side chain; on linkers, the order of the positions; unused ones are H or OH. Square brackets hold non-standard residues; d marks the D form. Side chains are listed from the residue outwards. Ends that are not written are not given here. * marks the point of attachment. C20 diacid = O=C(O)CCCCCCCCCCCCCCCCCCC(=O)*; γGlu = O=C(O)[C@H](CCC(=O)[*:2])N[*:1]; AEEA = NCCOCCOCC(=O)O; Aib = CC(C)(N)C(=O)O

How the values were obtained:
[1] = molecular target: human GLP-1 receptor (hGLP1R) (human, UniProt P43220 24-463); experiment: cell-based or functional assay
[2] = molecular target: human secretin receptor (hSCTR) (human, UniProt P47872 23-440); experiment: cell-based or functional assay
Sequence of human secretin receptor (hSCTR) (P47872 23-440): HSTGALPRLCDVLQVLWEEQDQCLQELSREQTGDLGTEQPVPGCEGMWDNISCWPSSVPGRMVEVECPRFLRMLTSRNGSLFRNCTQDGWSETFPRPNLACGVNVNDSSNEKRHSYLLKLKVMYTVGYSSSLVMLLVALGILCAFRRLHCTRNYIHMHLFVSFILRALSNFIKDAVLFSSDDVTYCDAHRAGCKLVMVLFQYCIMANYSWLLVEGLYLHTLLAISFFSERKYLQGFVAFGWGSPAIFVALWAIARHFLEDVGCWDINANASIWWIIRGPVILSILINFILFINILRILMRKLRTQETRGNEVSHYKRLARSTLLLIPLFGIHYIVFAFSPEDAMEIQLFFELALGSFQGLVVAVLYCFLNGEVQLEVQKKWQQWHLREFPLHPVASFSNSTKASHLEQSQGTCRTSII

Row | Binder | pEC50 hGLPR1 [1] | pEC50 hSCTR [2]
1 | H[Aib]EGTFTSDIS[Aib]LLEGAALQRFIQWLV-NH2 (N-terminus assumed; SMILES CC[C@H](C)[C@H](NC(=O)[C@H](Cc1ccccc1)NC(=O)[C@H](CCCNC(=N)N)NC(=O)[C@H](CCC(N)=O)NC(=O)[C@H](CC(C)C)NC(=O)[C@H](C)NC(=O)[C@H](C)NC(=O)CNC(=O)[C@H](CCC(=O)O)NC(=O)[C@H](CC(C)C)NC(=O)[C@H](CC(C)C)NC(=O)C(C)(C)NC(=O)[C@H](CO)NC(=O)[C@@H](NC(=O)[C@H](CC(=O)O)NC(=O)[C@H](CO)NC(=O)[C@@H](NC(=O)[C@H](Cc1ccccc1)NC(=O)[C@@H](NC(=O)CNC(=O)[C@H](CCC(=O)O)NC(=O)C(C)(C)NC(=O)[C@@H](N)Cc1c[nH]cn1)[C@@H](C)O)[C@@H](C)O)[C@@H](C)CC)C(=O)N[C@@H](CCC(N)=O)C(=O)N[C@@H](Cc1c[nH]c2ccccc12)C(=O)N[C@@H](CC(C)C)C(=O)N[C@H](C(N)=O)C(C)C) [SEQ ID NO: 113] | 10.3 -log M | 7.1 -log M
2 | H[Aib]EGTFTSD[Aib]SFLLEGAALQRFIQWLV-NH2 (N-terminus assumed; SMILES CC[C@H](C)[C@H](NC(=O)[C@H](Cc1ccccc1)NC(=O)[C@H](CCCNC(=N)N)NC(=O)[C@H](CCC(N)=O)NC(=O)[C@H](CC(C)C)NC(=O)[C@H](C)NC(=O)[C@H](C)NC(=O)CNC(=O)[C@H](CCC(=O)O)NC(=O)[C@H](CC(C)C)NC(=O)[C@H](CC(C)C)NC(=O)[C@H](Cc1ccccc1)NC(=O)[C@H](CO)NC(=O)C(C)(C)NC(=O)[C@H](CC(=O)O)NC(=O)[C@H](CO)NC(=O)[C@@H](NC(=O)[C@H](Cc1ccccc1)NC(=O)[C@@H](NC(=O)CNC(=O)[C@H](CCC(=O)O)NC(=O)C(C)(C)NC(=O)[C@@H](N)Cc1c[nH]cn1)[C@@H](C)O)[C@@H](C)O)C(=O)N[C@@H](CCC(N)=O)C(=O)N[C@@H](Cc1c[nH]c2ccccc12)C(=O)N[C@@H](CC(C)C)C(=O)N[C@H](C(N)=O)C(C)C) [SEQ ID NO: 111] | 10.5 -log M | 5.7 -log M
3 | H[Aib]EGTFTSDISRLLEGAALQRFIQWLV-NH2 (N-terminus assumed; SMILES CC[C@H](C)[C@H](NC(=O)[C@H](Cc1ccccc1)NC(=O)[C@H](CCCNC(=N)N)NC(=O)[C@H](CCC(N)=O)NC(=O)[C@H](CC(C)C)NC(=O)[C@H](C)NC(=O)[C@H](C)NC(=O)CNC(=O)[C@H](CCC(=O)O)NC(=O)[C@H](CC(C)C)NC(=O)[C@H](CC(C)C)NC(=O)[C@H](CCCNC(=N)N)NC(=O)[C@H](CO)NC(=O)[C@@H](NC(=O)[C@H](CC(=O)O)NC(=O)[C@H](CO)NC(=O)[C@@H](NC(=O)[C@H](Cc1ccccc1)NC(=O)[C@@H](NC(=O)CNC(=O)[C@H](CCC(=O)O)NC(=O)C(C)(C)NC(=O)[C@@H](N)Cc1c[nH]cn1)[C@@H](C)O)[C@@H](C)O)[C@@H](C)CC)C(=O)N[C@@H](CCC(N)=O)C(=O)N[C@@H](Cc1c[nH]c2ccccc12)C(=O)N[C@@H](CC(C)C)C(=O)N[C@H](C(N)=O)C(C)C) [SEQ ID NO: 115] | 10.4 -log M | 7.8 -log M
4 | H[Aib]EGTFTSDISVLLEGAALQRFIQWLV-NH2 (N-terminus assumed; SMILES CC[C@H](C)[C@H](NC(=O)[C@H](Cc1ccccc1)NC(=O)[C@H](CCCNC(=N)N)NC(=O)[C@H](CCC(N)=O)NC(=O)[C@H](CC(C)C)NC(=O)[C@H](C)NC(=O)[C@H](C)NC(=O)CNC(=O)[C@H](CCC(=O)O)NC(=O)[C@H](CC(C)C)NC(=O)[C@H](CC(C)C)NC(=O)[C@@H](NC(=O)[C@H](CO)NC(=O)[C@@H](NC(=O)[C@H](CC(=O)O)NC(=O)[C@H](CO)NC(=O)[C@@H](NC(=O)[C@H](Cc1ccccc1)NC(=O)[C@@H](NC(=O)CNC(=O)[C@H](CCC(=O)O)NC(=O)C(C)(C)NC(=O)[C@@H](N)Cc1c[nH]cn1)[C@@H](C)O)[C@@H](C)O)[C@@H](C)CC)C(C)C)C(=O)N[C@@H](CCC(N)=O)C(=O)N[C@@H](Cc1c[nH]c2ccccc12)C(=O)N[C@@H](CC(C)C)C(=O)N[C@H](C(N)=O)C(C)C) [SEQ ID NO: 116] | 10.3 -log M | 7.1 -log M
5 | H[Aib]EGTFTSDISFLLEGAALQRFIQWLV-NH2 (N-terminus assumed; SMILES CC[C@H](C)[C@H](NC(=O)[C@H](Cc1ccccc1)NC(=O)[C@H](CCCNC(=N)N)NC(=O)[C@H](CCC(N)=O)NC(=O)[C@H](CC(C)C)NC(=O)[C@H](C)NC(=O)[C@H](C)NC(=O)CNC(=O)[C@H](CCC(=O)O)NC(=O)[C@H](CC(C)C)NC(=O)[C@H](CC(C)C)NC(=O)[C@H](Cc1ccccc1)NC(=O)[C@H](CO)NC(=O)[C@@H](NC(=O)[C@H](CC(=O)O)NC(=O)[C@H](CO)NC(=O)[C@@H](NC(=O)[C@H](Cc1ccccc1)NC(=O)[C@@H](NC(=O)CNC(=O)[C@H](CCC(=O)O)NC(=O)C(C)(C)NC(=O)[C@@H](N)Cc1c[nH]cn1)[C@@H](C)O)[C@@H](C)O)[C@@H](C)CC)C(=O)N[C@@H](CCC(N)=O)C(=O)N[C@@H](Cc1c[nH]c2ccccc12)C(=O)N[C@@H](CC(C)C)C(=O)N[C@H](C(N)=O)C(C)C) [SEQ ID NO: 117] | 11 -log M | 6.7 -log M
6 | H[Aib]EGTFTSDVSELKELAASQRFLEHLV-NH2 (not fully specified (residue 14)) [SEQ ID NO: 12] | 10.7 -log M | 6.2 -log M
7 | H[Aib]EGTFTSDISYLLEGAALQRFIQWLV-NH2 (N-terminus assumed; SMILES CC[C@H](C)[C@H](NC(=O)[C@H](Cc1ccccc1)NC(=O)[C@H](CCCNC(=N)N)NC(=O)[C@H](CCC(N)=O)NC(=O)[C@H](CC(C)C)NC(=O)[C@H](C)NC(=O)[C@H](C)NC(=O)CNC(=O)[C@H](CCC(=O)O)NC(=O)[C@H](CC(C)C)NC(=O)[C@H](CC(C)C)NC(=O)[C@H](Cc1ccc(O)cc1)NC(=O)[C@H](CO)NC(=O)[C@@H](NC(=O)[C@H](CC(=O)O)NC(=O)[C@H](CO)NC(=O)[C@@H](NC(=O)[C@H](Cc1ccccc1)NC(=O)[C@@H](NC(=O)CNC(=O)[C@H](CCC(=O)O)NC(=O)C(C)(C)NC(=O)[C@@H](N)Cc1c[nH]cn1)[C@@H](C)O)[C@@H](C)O)[C@@H](C)CC)C(=O)N[C@@H](CCC(N)=O)C(=O)N[C@@H](Cc1c[nH]c2ccccc12)C(=O)N[C@@H](CC(C)C)C(=O)N[C@H](C(N)=O)C(C)C) [SEQ ID NO: 112] | 10.8 -log M | 5.6 -log M
8 | H[Aib]EGTFTSDISYLK([AEEA-AEEA-γGlu-C20 diacid])EEA[Aib]LQRFLEHLV-NH2 (also: K14 lipid also given as C18DA[γE][OEG][OEG]-) [SEQ ID NO: 114] | 11 -log M | 7.4 -log M

The remaining lines, values ahead:

Row | pEC50 hGLPR1 [1] | pEC50 hSCTR [2] | Binder
9 | 10.3 -log M | 6.7 -log M | H[Aib]EGTFTSDISGLLEGAALQRFIQWLV-NH2 (N-terminus assumed; SMILES CC[C@H](C)[C@H](NC(=O)[C@H](CC(=O)O)NC(=O)[C@H](CO)NC(=O)[C@@H](NC(=O)[C@H](Cc1ccccc1)NC(=O)[C@@H](NC(=O)CNC(=O)[C@H](CCC(=O)O)NC(=O)C(C)(C)NC(=O)[C@@H](N)Cc1c[nH]cn1)[C@@H](C)O)[C@@H](C)O)C(=O)N[C@@H](CO)C(=O)NCC(=O)N[C@@H](CC(C)C)C(=O)N[C@@H](CC(C)C)C(=O)N[C@@H](CCC(=O)O)C(=O)NCC(=O)N[C@@H](C)C(=O)N[C@@H](C)C(=O)N[C@@H](CC(C)C)C(=O)N[C@@H](CCC(N)=O)C(=O)N[C@@H](CCCNC(=N)N)C(=O)N[C@@H](Cc1ccccc1)C(=O)N[C@H](C(=O)N[C@@H](CCC(N)=O)C(=O)N[C@@H](Cc1c[nH]c2ccccc12)C(=O)N[C@@H](CC(C)C)C(=O)N[C@H](C(N)=O)C(C)C)[C@@H](C)CC) [SEQ ID NO: 120]
10 | 10.6 -log M | 7.3 -log M | H[Aib]EGTFTSDISELLEGAALQRFIQWLV-NH2 (N-terminus assumed; SMILES CC[C@H](C)[C@H](NC(=O)[C@H](Cc1ccccc1)NC(=O)[C@H](CCCNC(=N)N)NC(=O)[C@H](CCC(N)=O)NC(=O)[C@H](CC(C)C)NC(=O)[C@H](C)NC(=O)[C@H](C)NC(=O)CNC(=O)[C@H](CCC(=O)O)NC(=O)[C@H](CC(C)C)NC(=O)[C@H](CC(C)C)NC(=O)[C@H](CCC(=O)O)NC(=O)[C@H](CO)NC(=O)[C@@H](NC(=O)[C@H](CC(=O)O)NC(=O)[C@H](CO)NC(=O)[C@@H](NC(=O)[C@H](Cc1ccccc1)NC(=O)[C@@H](NC(=O)CNC(=O)[C@H](CCC(=O)O)NC(=O)C(C)(C)NC(=O)[C@@H](N)Cc1c[nH]cn1)[C@@H](C)O)[C@@H](C)O)[C@@H](C)CC)C(=O)N[C@@H](CCC(N)=O)C(=O)N[C@@H](Cc1c[nH]c2ccccc12)C(=O)N[C@@H](CC(C)C)C(=O)N[C@H](C(N)=O)C(C)C) [SEQ ID NO: 119]
11 | 8.6 -log M | 4.4 -log M | H[Aib]EGTFTSDPSYLKEEA[Aib]LQRFLEHLV-NH2 (not fully specified (residue 14)) [SEQ ID NO: 121]
12 | 10.2 -log M | 7.1 -log M | H[Aib]EGTFTSDISWLLEGAALQRFIQWLV-NH2 (N-terminus assumed; SMILES CC[C@H](C)[C@H](NC(=O)[C@H](Cc1ccccc1)NC(=O)[C@H](CCCNC(=N)N)NC(=O)[C@H](CCC(N)=O)NC(=O)[C@H](CC(C)C)NC(=O)[C@H](C)NC(=O)[C@H](C)NC(=O)CNC(=O)[C@H](CCC(=O)O)NC(=O)[C@H](CC(C)C)NC(=O)[C@H](CC(C)C)NC(=O)[C@H](Cc1c[nH]c2ccccc12)NC(=O)[C@H](CO)NC(=O)[C@@H](NC(=O)[C@H](CC(=O)O)NC(=O)[C@H](CO)NC(=O)[C@@H](NC(=O)[C@H](Cc1ccccc1)NC(=O)[C@@H](NC(=O)CNC(=O)[C@H](CCC(=O)O)NC(=O)C(C)(C)NC(=O)[C@@H](N)Cc1c[nH]cn1)[C@@H](C)O)[C@@H](C)O)[C@@H](C)CC)C(=O)N[C@@H](CCC(N)=O)C(=O)N[C@@H](Cc1c[nH]c2ccccc12)C(=O)N[C@@H](CC(C)C)C(=O)N[C@H](C(N)=O)C(C)C) [SEQ ID NO: 118]
